According to patent publication US20260078416A1, “ORTHOGONAL METABOLIC FRAMEWORK FOR ONE-CARBON UTILIZATION” (Mojia Biotech Pte. Ltd., priority 2021, published 2026):

System: formaldehyde
Experiment: Cell-free prototyping of the α-reduction FORCE pathway with E. coli cell extracts
Assay type: biochemical
Conditions: 50 mM formaldehyde
Text: A cell-free metabolic engineering approach was used to further prototype the FORCE pathways for product synthesis. […] As shown in FIG. 2 (in the formyl-CoA elongation panel), outside of the direct generation of 2-hydroxycarboxylates (e.g. glycolate) via thioester cleavage of the 2-hydroxyacyl-CoA generated by HACL, other C2 products, (including the aldose or aldehyde elongation pathways) require reduction of this 2-hydroxyacyl-CoA (glycolyl-CoA in the case of formaldehyde and formyl-CoA ligation). Listeria monocytogenes ACR (LmACR) are also able to act upon glycolaldehyde. […] With the inclusion of the previously identified HACL from Rhodospirillales bacterium URHD0017 (RuHACL), glycolate was observed.
Upon further addition of E. coli cell extract expressing diol dehydratase (DDR) from Klebsiella oxytoca, along with coenzyme B12, ethanol was detected (1.90±0.03 mM at one hour: FIG. 5b), likely due to the reduction of acetaldehyde by endogenous oxidoreductases, along with a corresponding decrease in ethylene glycol. […]
Enzyme expression and cell extract preparation was performed as described previously. […] Samples were centrifuged at 20817×g for 15 minutes and the supernatant analyzed by HPLC as described previously.

B1: E. coli FucO: E. coli 1,2-diol oxidoreductase, added as cell extract (protein, UniProt P0A9S1 1-382, looked up)
Lactaldehyde reductase: MANRMILNETAWFGRGAVGALTDEVKRRGYQKALIVTDKTLVQCGVVAKVTDKMDAAGLAWAIYDGVVPNPTITVVKEGLGVFQNSGADYLIAIGGGSPQDTCKAIGIISNNPEFADVRSLEGLSPTNKPSVPILAIPTTAGTAAEVTINYVITDEEKRRKFVCVDPHDIPQVAFIDADMMDGMPPALKAATGVDALTHAIEGYITRGAWALTDALHIKAIEIIAGALRGSVAGDKDAGEEMALGQYVAGMGFSNVGLGLVHGMAHPLGAFYNTPHGVANAILLPHVMRYNADFTGEKYRDIARVMGVKVEGMSLEEARNAAVEAVFALNRDVGIPPHLRDVGVRKEDIPALAQAALDDVCTGGNPREATLEDIVELYHTAW
modifications: added as cell extract
notes: E. coli 1,2-diol oxidoreductase, added as cell extract
For B1, the ethylene glycol synthesis (extract added to LmACR and RuHACL extracts) was 2.73 ± 0.03 mM and the “increase in ethylene glycol” value (vs without the added extract) was 2 fold.
